Substitutions are numbered along the chain they refer to. Where two headings read alike, the source gives them in different places.

Experiment in all cases: FRET
For data set [1], the target named is T1, HsMSH2;HsMSH6 (sortase/Cy3) (Homo sapiens;Homo sapiens, UniProt P43246;P52701 1-934;1-1360, |).
In data set [2] the target is T2, HsMSH2;HsMSH3 (sortase/Cy3) (Homo sapiens;Homo sapiens, UniProt P43246;P20585 1-934;1-1137, |).
Data set [3] concerns the target T2, HsMSH2;HsMSH3 (sortase/Cy3). This is another data set of the same source.
The target of data set [4] is T1, HsMSH2;HsMSH6 (sortase/Cy3). This is another data set of the same source.
Data set [5] addresses T2, HsMSH2;HsMSH3 (sortase/Cy3). The source holds these as a separate data set.
Data set [6] has as its target T1, HsMSH2;HsMSH6 (sortase/Cy3). This is another data set of the same source.

B1: 41-mer G/T Cy5 (dsDNA)
DNA 1: GCTTAGGATCATCGAGGATCGAGCTCGGTGCAATTCAGCGG
DNA 2: CCGCTGAATTGCACCGAGCTTGATCCTGCATGATCCTAAGC
modifications: amino-C6 dT at position 12 of top strand
As to B1, the binding result in data set [1] is “binds”; in data set [2], “no binding”.

B2: 41-mer G/+(CA)4 Cy5 (dsDNA)
DNA 1: B1 DNA 1
DNA 2: CCGCTGAATTGCACCGAGCTCACACACACGATCCTCGATGATCCTAAGC
modifications: amino-C6 dT at position 12 of top strand
In the case of B2, the binding result in data set [3] and in data set [4] was “binds” in each case.

B3: 41-mer G/C Cy5 (dsDNA)
DNA 1: B1 DNA 1
DNA 2: B1 DNA 2 with T21C, G28C, C29G
modifications: amino-C6 dT at position 12 of top strand
For B3, the binding result in data set [5] and in data set [6] was “no binding” throughout.

(Values after doi:10.1101/2021.10.21.465318.)
